One molecule from US20260274928A1 can be followed below.

This test deals with 25-strain panel of pre- and post-Omicron VSV-based SARS-CoV-2 S pseudotyped viruses. As to the kind of experiment: cell-based or functional assay.

B1: S2V29-v37.2 (antibody, V domains shown)
VH: EVQLVESGGSVVQPGRALRLSCAASGITFSSFGMYWVRQAPGKGLEWLGYIAYDGSDTYYADSVKGRFTISRDNSKNTLYLQMNSLRIEDTAVYYCAKDYYPLLSYYYGLDVWGQGTTVTVSS
VL: QSVLTQPRSVSGSPGQSVTISCTGTSSDVGAYNYVSWYQQHPGKAPKFMIYDVDQRPSGVPDRFSGSKSGNTASLIISGLQAEDEADYYCSSYAGSYIWVFGGGTQLTVL
B1 showed an IC50, pseudovirus neutralization of 1.9 to 31.2 ng/mL and a median IC50, pseudovirus neutralization of 8.2 ng/mL.
